Data: the supplement of paper PMC9170038

Test system: MS2 coat protein
Experiment: apparent KD of MS2 coat protein; designed switch direction (-1 OFF switch, 1 ON switch): 1; higher = weaker reporter binding
Method in brief: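 RNA switches sharing common flanks were transcribed by stalled E. coli RNA polymerase on Illumina chips. A doubling series of SNAP-549-labelled MS2 coat protein, from 0.7 or 1.5 nM to 3 µM, was applied in Tris-HCl pH 7.5 buffer with KCl, MgCl2, BSA, DTT, tRNA and Tween-20. Each step lasted 0.8–1.5 h at the bottom of the series and 10–20 min at the top. Normalised cluster fluorescence was curve-fitted, giving apparent KD as the per-design median over clusters.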

[1] = input ligand: microRNA oligo, concentration not stated
[2] = Eterna round: R95, input ligand: FMN 200 uM
[3] = Eterna round: R95, input ligand: microRNA oligo, concentration not stated
[4] = Eterna round: R95, input ligand: none

| Sequence | apparent KD of MS2 coat protein (input ligand: FMN 200 uM) | apparent KD of MS2 coat protein [1] | apparent KD of MS2 coat protein (input ligand: none) | apparent KD of MS2 coat protein [2] | apparent KD of MS2 coat protein [3] | apparent KD of MS2 coat protein [4] |
| --- | --- | --- | --- | --- | --- | --- |
| CGCCAGAGAGCAGGAUAUGGGCCACGGCCUAAGGGCUGUGGACUCACAUGAGGAUCACCCAUGUCCCAGAAGGGCUCCUGGCUA [Usarbebi] (Eterna round: R96, puzzle: Same State NG 2) | 0.0181 µM | 0.128 µM | 0.174 µM |  |  |  |
| CGCUGCGUUUCAUAGGAUAUGUGGUUUUGAACAUGAGGAUCACCCAUGUAGACGUCAAUGGCUCCACAGAAGGGUGACACUAGUG [Aredis] (puzzle: Same State 2) |  |  |  | 0.261 µM | 0.571 µM | 0.908 µM |
| CGGAAACGUCAAGGAUAUGCUACCGUUUCGGUAGCAGAAGGUGAUCACAUGAGGAUCACCCAUGUAUGCAUGCGUGAGCGUGCU [JL SSNG1 3.56] (Eterna round: R96, puzzle: Same State NG 1) | 0.206 µM | 0.187 µM | 0.177 µM |  |  |  |
| CGGCGCUGUCGAGAGGAUAUGCGGUGAUGGACAUGAGGAUCACCCAUGUUAGCGAUAGCAUCACGGUAGAAGGCUCUACGGCCUG [Soteed Omei mod 22] (puzzle: Same State 2) |  |  |  |  | 0.0523 µM |  |
| CGGGUACAUGAGGAUCACCCAUGUGGAAGAGAUGCAGGAUAUGUGGGAAAAGGGAAUGUAACAGAAGGGCAAGGAG [JR_SS!_Sub016] (puzzle: Same State 1) |  |  |  | 0.0534 µM | 0.0641 µM | 0.144 µM |
| CGGGUACAUGAGGAUCACCCAUGUGGGAGGGAUGCAGGAUAUGUGGGAGGAGGGUAUGAAACAGAAGGGCAAGGAG [JR_SS!_Sub012] (puzzle: Same State 1) |  |  |  | 0.0467 µM | 0.0489 µM | 0.0655 µM |
| CGGGUGAUCGUAGGAUAUCUAGGAUAUGAACGAGGAUCACCCGAGCAGCAUCAGCGCAUCAGAGGAGAGAAGGACGAUCAUGCG [pwkr ssNG2 2F5 2FMN.7] (Eterna round: R96, puzzle: Same State NG 2) | 0.326 µM | 0.0129 µM | 0.0591 µM |  |  |  |
| CGUAGGUAGCUGGAGGAUAUUCGAGUGGUAACAUGAGGAUCACCCAUGUGGAGAGAGGAACAUGAGGAGAAGGCUAGCUGCCUGC [JL-ss2-3.19 JL mod] (puzzle: Same State 2) |  |  |  | 0.00836 µM | 0.0217 µM | 0.0167 µM |
| CGUCCAGCCUGAGCUGGACAAAAGCAUGUACAUGAGGAUCACCCAUGUUCAUGUACAAGCUUUUUGCUCGUCUUACC [salish99_208a_r3_094x] (Eterna round: R96, puzzle: Sensor for hsa-mir-208a) | 0.76 µM | 0.0143 µM | 0.752 µM |  |  |  |
| CGUCCAGCCUGAGCUGGACAAAAGCAUGUACAUGAGGAUCACCCAUGUUCAUGUACAAGCUUUUUGCUCGUCUUACC [salish99_208a_r3_094x] (puzzle: Sensor for hsa-mir-208a) |  |  |  | 0.638 µM | 0.0159 µM | 1.01 µM |
| CGUCCGGCCUGUGCUGGCCGGUGGCUUGUACAUGAGGAUCACCCAUGUUCUUGUGCUGGCGUUUUGCUCGUCUUGUG [salish99_mir208a_r3_020] (puzzle: Sensor for hsa-mir-208a) |  |  |  | 0.0282 µM | 0.0207 µM | 0.0325 µM |
| CUAAAACAUGAGGAUCACCCAUGUCAACAAAGUCGAGGAUAUGGGCAAAUAAAAUAAGAACCAGAAGGCGAAUAAA [salish99_SS1_r3_015] (puzzle: Same State 1) |  |  |  | 0.0428 µM | 0.518 µM | 0.518 µM |
| CUAGGAGGAUGAGGAUAUGCAGAGGAUCACCCUGUAGAAGGCAAGAGAUGAGGAUAUGCAGAGGAUCACCCUGUAGAAGGCAAC [pwkr ssNG DX.1] (Eterna round: R96, puzzle: Same State NG 1) | 0.307 µM | 0.0865 µM | 0.122 µM |  |  |  |
| CUAUCUACAGGUGUCUUUGCUCGUUUUAUACAUGAGGAUCACCCAUGUUAUAGCCCGGUGCUUGCGCUGGGCUGAUU [JL ViennaUCT Tearor mod 7] (puzzle: Sensor for hsa-mir-208a) |  |  |  | 0.1 µM | 0.0155 µM | 0.0953 µM |
| CUGAGAUGUCAAGGAUAUCACGUCGAUUAGACGUGAGAAGGUGAUCAGUACAUGAGGAUCACCCAUGUGUUACAUGGAACUCAG [Brourd's SSNG1/1-A2 mod 9] (Eterna round: R96, puzzle: Same State NG 1) | 0.868 µM | 0.102 µM | 0.571 µM |  |  |  |
| CUGAGCGAUCAAGGAUAUCACGUCGAUUAGACGUGAGAAGGUGAUCCAUACAUGAGGAUCACCCAUGUAUAACAUGAAGCUCAG [SSNG1/8-A2] (Eterna round: R96, puzzle: Same State NG 1) | 0.414 µM | 0.507 µM | 0.861 µM |  |  |  |
| CUGAGCGAUCGAGGAUAUCACGUCGUUUAGACGUGAGAAGGCGAUCAUAACAUGAGGAUCACCCAUGUAUUACAUGAAGCUCAG [SSNG1/4-A3] (Eterna round: R96, puzzle: Same State NG 1) | 0.0168 µM | 0.0149 µM | 0.0192 µM |  |  |  |
| CUGUAUCACGGAGGAUAUGGGCUGAGACCAGGGCAACCCUGGUCAACAUGAGGAUCACCCAUGUCCCAGAAGGCCGCGAUGCUA [Geisorqu] (Eterna round: R96, puzzle: Same State NG 2) | 0.0238 µM | 0.0829 µM | 0.137 µM |  |  |  |
| CUGUCUACAGGUGUCUUUGCUCGUUUUAUACAUGAGGAUCACCCAUGUUGUAGCCCGGUGCUUGCGCUGGGCUGGUU [JL ViennaUCT Tearor mod 9] (puzzle: Sensor for hsa-mir-208a) |  |  |  | 0.066 µM | 0.0156 µM | 0.0727 µM |
| GAAGGAUGAGCGUAGGAUAUAGGAGGAGUGACAUGAGGAUCACCCAUGUAGUAGGAGGGAGGGUACUAGAAGGACGAGGAAGAAG [JR_SS2_Sub067] (puzzle: Same State 2) |  |  |  | 0.0397 µM | 0.0493 µM | 0.0515 µM |
| GAAGGAUGAGCGUAGGAUAUAGGAGGAGUGACAUGAGGAUCACCCAUGUGGUAGGAGGGAGGGUACUAGAAGGACGAGGAAGAGG [JR_SS2_Sub069] (Eterna round: R96, puzzle: Same State 2) | 0.102 µM | 0.0497 µM | 0.084 µM |  |  |  |
| GAAGGAUGAGCGUAGGAUAUAGGAGGAGUGACAUGAGGAUCACCCAUGUGGUAGGAGGGAGGGUACUAGAAGGACGAGGAAGAGG [JR_SS2_Sub069] (puzzle: Same State 2) |  |  |  | 0.216 µM | 0.106 µM | 0.161 µM |
| GACAAUCUAUCUCAGGAUAUCAUGUCAAAGACAUGAGGAUCACCCAUGUACCAGGAAACUGGUUAUGAGAAGGGAGAUAGAUUGG [Mat - Same State 2 - Mod - D27] (puzzle: Same State 2) |  |  |  | 0.179 µM | 0.0157 µM | 5.66 µM |
| GAGAAUCUAUCUCAGGAUAUCAUGUCAAAGACAUGAGGAUCACCCAUGUACCAGGAAACUGGUUAUGAGAAGGGAGAUAGAUUCG [Mat - Same State 2 - Mod - D36] (puzzle: Same State 2) |  |  |  | 0.0861 µM | 0.111 µM | 0.0401 µM |
